Measured values: patent US20200165325A1

Assays:
[1] = molecular target: HIV-1 Env of strain 1056_10_TA11_1826 (HIV-1)
[2] = molecular target: HIV-1 Env of strain 231966.c02 (HIV-1)
[3] = molecular target: HIV-1 Env of strain 3817.v2.c59 (HIV-1)
[4] = molecular target: HIV-1 Env of strain 620345.c01 (HIV-1)
[5] = molecular target: HIV-1 Env of strain 62357_14_D3_4589 (HIV-1)
[6] = molecular target: HIV-1 Env of strain 6535.3 (HIV-1)
[7] = molecular target: HIV-1 Env of strain 928-28 (HIV-1)
[8] = molecular target: HIV-1 Env of strain CAP210.2.00.E8 (HIV-1)
[9] = molecular target: HIV-1 Env of strain CNE21 (HIV-1)
[10] = molecular target: HIV-1 Env of strain CNE30 (HIV-1)
[11] = molecular target: HIV-1 Env of strain CNE53 (HIV-1)
[12] = molecular target: HIV-1 Env of strain Ce2010_F5 (HIV-1)
[13] = molecular target: HIV-1 Env of strain Du422.1 (HIV-1)
[14] = molecular target: HIV-1 Env of strain P0402_c2_11 (HIV-1)
[15] = molecular target: HIV-1 Env of strain Q769.d22 (HIV-1)
[16] = molecular target: HIV-1 Env of strain Q842.d12 (HIV-1)
[17] = molecular target: HIV-1 Env of strain QH0692.42 (HIV-1)
[18] = molecular target: HIV-1 Env of strain SC422661.8 (HIV-1)
[19] = molecular target: HIV-1 Env of strain T255-34 (HIV-1)
[20] = molecular target: HIV-1 Env of strain TRO.11 (HIV-1)
[21] = molecular target: HIV-1 Env of strain WITO4160.33 (HIV-1)
[22] = molecular target: HIV-1 Env of strain X1254_c3 (HIV-1)
[23] = molecular target: HIV-1 Env of strain ZM53M.PB12 (HIV-1)
[24] = molecular target: Env (gp120) of HIV-1 strain 1054_07_TC4_1499 (HIV-1)
[25] = molecular target: Env (gp120) of HIV-1 strain 231965.c01 (HIV-1)
[26] = molecular target: Env (gp120) of HIV-1 strain 3016.v5.c45 (HIV-1)
[27] = molecular target: Env (gp120) of HIV-1 strain 6535.3 (HIV-1)
[28] = molecular target: Env (gp120) of HIV-1 strain 89-F1_2_25 (HIV-1)
[29] = molecular target: Env (gp120) of HIV-1 strain AC10.0.29 (HIV-1)
[30] = molecular target: Env (gp120) of HIV-1 strain C1080.c03 (HIV-1)
[31] = molecular target: Env (gp120) of HIV-1 strain C2101.c01 (HIV-1)
[32] = molecular target: Env (gp120) of HIV-1 strain C3347.c11 (HIV-1)
[33] = molecular target: Env (gp120) of HIV-1 strain CNE53 (HIV-1)
[34] = molecular target: Env (gp120) of HIV-1 strain CNE58 (HIV-1)
[35] = molecular target: Env (gp120) of HIV-1 strain Du172.17 (HIV-1)
[36] = molecular target: Env (gp120) of HIV-1 strain Du422.1 (HIV-1)
[37] = molecular target: Env (gp120) of HIV-1 strain P0402_c2_11 (HIV-1)
[38] = molecular target: Env (gp120) of HIV-1 strain Q23.17 (HIV-1)
[39] = molecular target: Env (gp120) of HIV-1 strain Q259.d2.17 (HIV-1)
[40] = molecular target: Env (gp120) of HIV-1 strain R2184.c04 (HIV-1)
[41] = molecular target: Env (gp120) of HIV-1 strain REJO4541.67 (HIV-1)
[42] = molecular target: Env (gp120) of HIV-1 strain RHPA4259.7 (HIV-1)
[43] = molecular target: Env (gp120) of HIV-1 strain SC422661.8 (HIV-1)
[44] = molecular target: Env (gp120) of HIV-1 strain T250-4 (HIV-1)
[45] = molecular target: Env (gp120) of HIV-1 strain T251-18 (HIV-1)
[46] = molecular target: Env (gp120) of HIV-1 strain T255-34 (HIV-1)
[47] = molecular target: Env (gp120) of HIV-1 strain TRJO4551.58 (HIV-1)
[48] = molecular target: Env (gp120) of HIV-1 strain WEAU_d15_410_787 (HIV-1)
[49] = molecular target: Env (gp120) of HIV-1 strain WITO4160.33 (HIV-1)
[50] = molecular target: Env (gp120) of HIV-1 strain ZM109F.PB4 (HIV-1)
[51] = molecular target: Env (gp120) of HIV-1 strain ZM135M.PL10a (HIV-1)
[52] = molecular target: Env (gp120) of HIV-1 strain ZM197M.PB7 (HIV-1)
[53] = molecular target: Env (gp120) of HIV-1 strain ZM247v1(Rev-) (HIV-1)

NIH45-46 G54Y IgG (antibody)
In vitro neutralization IC80 [1]: 0.189 µg/mL
In vitro neutralization IC80 [2]: 0.23 µg/mL
In vitro neutralization IC80 [3]: > 50 µg/mL
In vitro neutralization IC80 [4]: > 50 µg/mL
In vitro neutralization IC80 [5]: 0.09 µg/mL
In vitro neutralization IC80 [6]: 0.24 µg/mL
In vitro neutralization IC80 [7]: 0.33 µg/mL
In vitro neutralization IC80 [8]: > 50 µg/mL
In vitro neutralization IC80 [9]: 0.29 µg/mL
In vitro neutralization IC80 [10]: 0.263 µg/mL
In vitro neutralization IC80 [11]: 0.027 µg/mL
In vitro neutralization IC80 [12]: 0.235 µg/mL
In vitro neutralization IC80 [13]: > 50 µg/mL
In vitro neutralization IC80 [14]: 0.049 µg/mL
In vitro neutralization IC80 [15]: 0.024 µg/mL
In vitro neutralization IC80 [16]: 0.045 µg/mL
In vitro neutralization IC80 [17]: 1.5 µg/mL
In vitro neutralization IC80 [18]: 0.09 µg/mL
In vitro neutralization IC80 [19]: 0.174 µg/mL
In vitro neutralization IC80 [20]: 0.22 µg/mL
In vitro neutralization IC80 [21]: 0.09 µg/mL
In vitro neutralization IC80 [22]: 0.041 µg/mL
In vitro neutralization IC80 [23]: 0.22 µg/mL

NIH45-46 IgG (antibody)
neutralization IC50 [24]: 0.113 µg/mL
neutralization IC50 [25]: 0.051 µg/mL
neutralization IC50 [26]: > 50 µg/mL
neutralization IC50 [27]: 0.23 µg/mL
neutralization IC50 [28]: > 50 µg/mL
neutralization IC50 [29]: 0.56 µg/mL
neutralization IC50 [30]: 2.48 µg/mL
neutralization IC50 [31]: 4.24 µg/mL
neutralization IC50 [32]: 0.029 µg/mL
neutralization IC50 [33]: 0.008 µg/mL
neutralization IC50 [34]: 0.43 µg/mL
neutralization IC50 [35]: > 50 µg/mL
neutralization IC50 [36]: > 50 µg/mL
neutralization IC50 [37]: 0.073 µg/mL
neutralization IC50 [38]: 0.14 µg/mL
neutralization IC50 [39]: 0.043 µg/mL
neutralization IC50 [40]: 0.034 µg/mL
neutralization IC50 [41]: 0.014 µg/mL
neutralization IC50 [42]: 0.017 µg/mL
neutralization IC50 [43]: 0.06 µg/mL
neutralization IC50 [44]: > 50 µg/mL
neutralization IC50 [45]: 1.35 µg/mL
neutralization IC50 [46]: 0.71 µg/mL
neutralization IC50 [47]: 0.04 µg/mL
neutralization IC50 [48]: 0.005 µg/mL
neutralization IC50 [49]: 0.06 µg/mL
neutralization IC50 [50]: 0.095 µg/mL
neutralization IC50 [51]: 0.59 µg/mL
neutralization IC50 [52]: 0.15 µg/mL
neutralization IC50 [53]: 2.94 µg/mL

NIH45-46^G54F IgG (antibody)
neutralization IC50 [24]: 0.076 µg/mL
neutralization IC50 [25]: 0.022 µg/mL
neutralization IC50 [26]: 5.82 µg/mL
neutralization IC50 [27]: 0.07 µg/mL
neutralization IC50 [28]: > 50 µg/mL
neutralization IC50 [29]: 0.24 µg/mL
neutralization IC50 [30]: 0.36 µg/mL
neutralization IC50 [31]: 0.11 µg/mL
neutralization IC50 [32]: 0.015 µg/mL
neutralization IC50 [33]: 0.005 µg/mL
neutralization IC50 [34]: 0.04 µg/mL
neutralization IC50 [35]: > 50 µg/mL
neutralization IC50 [36]: > 50 µg/mL
neutralization IC50 [37]: 0.008 µg/mL
neutralization IC50 [38]: 0.03 µg/mL
neutralization IC50 [39]: 0.009 µg/mL
neutralization IC50 [40]: 0.015 µg/mL
neutralization IC50 [41]: 0.007 µg/mL
neutralization IC50 [42]: 0.005 µg/mL
neutralization IC50 [43]: 0.04 µg/mL
neutralization IC50 [44]: > 50 µg/mL
neutralization IC50 [45]: 0.41 µg/mL
neutralization IC50 [46]: 0.03 µg/mL
neutralization IC50 [47]: 0.03 µg/mL
neutralization IC50 [48]: < 0.001 µg/mL
neutralization IC50 [49]: 0.02 µg/mL
neutralization IC50 [50]: 0.022 µg/mL
neutralization IC50 [51]: 0.13 µg/mL
neutralization IC50 [52]: 0.09 µg/mL
neutralization IC50 [53]: 0.28 µg/mL
